US20240245805A1 (Orna Therapeutics, Inc., priority 2020, published 2024)

B1: Icavirus (nucleic acid)
DNA: CGAAGTTTAAGCTAAGCACCCTCGGGCGTTCCCGGATTATGTGATCACATCAATTTGATGGCTGGTCACCACGCAACGCCTGGAGAGATACTCTTACTTTTCTCTTAAGATCCCCGGTCATTTGACGCTTGTAGGATGATAGGGTTATTTTCCACTATAAATACTTTCATACTCTTGGATGTTCTATATCCAAGACGGGAGGACCTACCCCGTACCCCTTAGAGGTGAGATGCCAAGAACAGGCCCTTTCTGTTCTCTCGACAATGGCATCATAGGCAACAAGCATCACACCAAGATTGCTAAGTTTTGTTAAGAGTTCTTCAAGCTATAGGGTGGCTGTAGCGACCTTCTGATGCCTGCGGATTTCCCCACGGAGCGATCCGTGCCACAGGGGCCAAAAGCCACGGCTAACGCCCATCAGGAGCGGCACTTACCCCGTGCCCCACCCTTGAAACTTGAATGTTCACACTGGCTTCTCTCGGCTTTCTGAACTGTCTGCTTGTTGGGGCCCCGAAGGATGCCCTGGAGGTACCCCATTTTATGGGATCTGACCAGGGGACACCTCAGCTCTCTAAGTTGCTGGTGTTTAAAAAACGTCTAAGGGCCCCCACCCCTTAGGTGGAGGGATCCACCTTTCCTTTATTTTTTAAAACTCTTTTATGGTCACAATTGTTT
modifications: source: /note="Description of Unknown: Icavirus sequence"
B2: Antarctic penguin virus A (nucleic acid)
DNA: CTAGGAGACTACGCAGTGGGATAAGATGACTATGATGTCGTACGGGCAGAAGCCAGTACAGTCGAAGTCGAGACCGACGTCGAGGATTTGACTCTGCCTGACCTAGTGCCATC
modifications: chemistry not fully specified; the letters are possibly those of the target site
B3: Enterovirus sp. isolate CPML (nucleic acid, listed as Enterovirus sp.)
chain: ACTCTGGTATCACGGTACCTTTGCACGCCTATTTTATACCCCTTCCCCATCGTAACTTAGAAGCAACAAACAAACTGCCCAATAGCAGCACAACACCCAGTTGTGTTAGGGGCAAGCACTTCTGTTTCCCCGGAAGGGTCTGACGGTATGCTGTACCCACGGCAGAAGTATGACCTACCGTTAACCGGCCATGTACTTCGAGAAGCCTAGTACCATTATGAAGGTTGATTGATGTTACGCTCCCCAGCAACCCCAGCTGGTAGTTCTGGTCGATGAGTCTCGGCATTCCCCACGGGCGACCGTGGCCGAGGCTGCGTTGGCGGCCAGCCTACACCATACGGTGTAGGACGTCAAGATACTGACATGGTGTGAAGAGCCTATTGAGCTACGTGGTAGTCCTCCGGCCCCTGAATGCGGCTAATCCTAACTCCGGAGCATCCGCCAGTAAGCCCACTGGAAGGGTGTCGTAATGCGAAAGTCTGGAGCGGAACCGACTACTTTGGGTGTCCGTGTTTCCTGTTTTACTTATTGTTTGGCTGCTTATGGTGACAACTTATAGTTATCATCATAAGCTACTTGGTCTTGCCAACCGGAGAATTATTTGGTTATTTGTTGGTTTCATAAACCTACAGTCGTATTTTCCTGTCTTATTAATTGTTCTCAAAATTAACAACA
modifications: lipid formulation
B4: Equine rhinitis A virus (nucleic acid)
chain: AAGGGTTACTGCTCGTAATGAGAGCACATGACATTTTGCCAAGATTTCCTGGCAATTGTCACGGGAGAGAGGAGCCCGTTCTCGGGCACTTTTCTCTCAAACAATGTTGGCGCGCCTCGGCGCGCCCCCCCTTTTTCAGCCCCCTGTCATTGACTGGTCGAAGGCGCTCGCAATAAGACTGGTCGTTGCTTGGCTTTTCTATTGTTTCAGGCTTTAGCGCGCCCTTGCGCGGCGGGCCGTCAAGCCCGTGTGCTGTACAGCACCAGGTAACCGGACAGCGGCTTGCTGGATTTTCCCGGTGCCATTGCTCTGGATGGTGTCACCAAGCTGGCAGATGCGGAGTGAACCTTACGAAGCGACACACCTGTGGTAGCGCTGCCCAGAAGGGAGCGGAGCTCCCCCGCCGCGAGGCGGTCCTCTCTGGCCAAAAGCCCAGCGTTAATAGCGCCTTCTGGGATGCAGGAACCCCACCTGCCAGGTGTGAAGTGGACTAAGTGGATCTCCAATTTGGCCTGTTCTGAACTACACCATCTACTGCTGTGAAGAATGTCCTGAAGGCAAGCTGGTTACAGCCCTGATCAGGAGCCCCGCTCGTGACTCTCGATCGACGCGGGGTCAAAAACTGTCTAAGCAGCAGCAGAAACGCGGGAGCGTTTCTTTTTCCTCATTTGTTTC
modifications: lipid formulation; Equine rhinitis A virus
B5: Hepacivirus B (nucleic acid)
DNA: ACCACAAACACTCCAGTTTGTTACACTCCGCTAGGAATGCTCCTGGAGCACCCCCCCTAGCAGGGCGTGGGGGATTTCCCCTGCCCGTCTGCAGAAGGGTGGAGCCAACCACCTTAGTATGTAGGCGGCGGGACTCATGACGCTCGCGTGATGACAAGCGCCAAGCTTGACTTGGATGGCCCTGATGGGCGTTCATGGGTTCGGTGGTGGTGGCGCTTTAGGCAGCCTCCACGCCCACCACCTCCCAGATAGAGCGGCGGCACTGTAGGGAAGACCGGGGACCGGTCACTACCAAGGACGCAGACCTCTTTTTGAGTATCACGCCTCCGGAAGTAGTTGGGCAAGCCCACCTATATGTGTTGGGATGGTTGGGGTTAGCCATCCATACCGTACTGCCTGATAGGGTCCTTGCGAGGGGATCTGGGAGTCTCGTAGACCGTAGCAC
modifications: Hepacivirus B
B6: Falcon picornavirus (nucleic acid)
chain: CGCTTGGAATAAGTTGAGAGGAATTATGCATGCTAGTTGTGTTTGTTTACAACTAATTGTTCTAATCCAAGTGAAGCTCTTCGCTTGGGGCGGCACGACACTTGCCGTAATTCTTCTACCGTCCCTCCACACCTTGTGGATGAAGGGCCGGATGTGTGGCCTCTGGCTAACCCCTCTCTCTGGGGTGATGCTACTGGATGTTTTACTCCTAGACCAAATCACATGAACTCCTCTTGATCCACTTCGGTGGGGCTATGAGCCTGCGGATTAATAGCTGGCGACAGCTACCCCAGGGGCCAAAAGCCACGGTGTTAGCAGCACCCTCATAGTCTGATGCCCAAGGGCTGATGTTGGGAGCTAGTAGTGTGTGTCTGGCCTATGTTTAGGACTTCTGGCCAAGCGCAGAGGAGTGGGGCTGAAGGATGCCCAGAAGGTACCCGTAGGTAACCTTAAGAGACTATGGATCTGATCTGGGGCCCCCTCACGTGGCTTTACCACGTGTTGGGGGTTAAAAAACGTCTAGGCCCCACCAGCCCACGGGAGTGGGCTTTCCCTTAAAAAGCCCAACAATATTTATGGTGACAATTCACTGTTTCTTCTTTGCAATTTTTGTATTCTTGGACTCCTTATTTTTTGTTTGCTTGATTTTAGTGGACATTCAGATTCAAATACAAA
modifications: lipid formulation; source: /note="Description of Unknown: Falcon picornavirus sequence"
B7: Equine rhinitis B virus 1 (nucleic acid)
chain: CGACAGGCACAGGTCGCTCCGAGTTCTAGTAGTGTGGGAACTTGTTACTACTGATGAAACGAGGTAGTGACACTCAGTACCTGCGAACGAGGTCGGGGCCCTCCCTTCTTCCTTCACCCAACTTTCACTTTTCGTTCCACTTTAGCAGGGGTCTTCTTTCTATCCCCCTGGCGGCATTGGAACTAGCCGTCGCGTCTTAACGCGCAGCCCTGAAGGCCCCACACCTTGTGGATCTTGCCGTGGGTATGTTTCTGGCATGTGTTTCTCAAGCCTGCAACCGAAGCCGAACAGCCACATGAACAGTTTGAGCGTGGTAGCGCTGTGTGAGTTGGCGGTGGATCCCCCTCGTGGTAACACGAGCCCCCGTGGCCAAAAGCCCAGTGTTTACAGCACCTCTCACATCCAGGACGACCCCATCCTGGCGCTCACTCTTAGTAGTATGGCTTAGTACGCATTAGGTGGTAAGCCGAGCTCTCCCTCGGCCTTGTTCTGAATGCACACATGTCTAGGGGCTAAGGATGTCCTACAGGTACCCGCACGTAACCTTCAGAGAGTGCGGATCTGAGTAGGAGACCGTGGTGCACTGCTTTACAGATGCAGCCCGGTTTAAAAAGCGTCTATGCCCCTACAGGGTAGCGGTGGGCCGCGCCCTTTCCTTTTAAAACTACTTGTTCT
modifications: lipid formulation; source: /note="Description of Unknown: Equine rhinitis B virus 1 sequence"
B8: Equine arteritis virus (nucleic acid)
chain: GCTCGAAGTGTGTATGGTGCCATATACGGCTCACCACCATATACACTGCAAGAATTACTATTCTTGTGGGCCCCTCTCGGTAAATCCTAGAGGGCTTTCCTCTCGTTATTGCGAGATTCGTCGTTAGATAACGGCAAGTTCCCTTTCTTACTATCCTATTTTCATCTTGTGGCTTGACGGGTCACTGCCATCGTCGTCGATCTCTATCAACTACCCTTGCGACT
modifications: lipid formulation; source: /note="Description of Unknown: Equine arteritis virus sequence"
B9: Human coxsackievirus A2 (nucleic acid)
DNA: ACCTTTGTGCGCCTGTTTTATATCCCCACCCCGAGTAAACGTTAGAAGTTACGCAACCCCGATCAATAGTAGGTGTAGCACTCCAGCTGCATCGAGATCAAGCACTTCTGTCTCCCCGGACCGAGTATCAATAGACTGCTAACGCGGTTGAAGGAGAAAACGTTCGTTACCCGGCCAATTACTTCGAGAAGCCCAGTAGTGCCGTGAAAGTTGCGGAGTGTTTCGCTCAGCACTTCCCCCGTGTAGATCAGGCTGATGAGTCACCGCGATCCCCACAGGTGACTGTGGCGGTGGCTGCGTTGGCGGCCTGCCTATGGGGCAACCCATAGGACGCTCTAATACAGACATGGTGCGAAGAGCCTATTGAGCTAATTGGTAGTCCTCCGGCCCCTGAATGCGGCTAATCCTAACTGCGGAGCACATGCCCTCAAACCAGGGGGTGGTGTGTCGTAACGGGTAACTCTGCAGCGGAACCGACTACTTTGGGTGTCCGTGTTTCTTTTTATTCTTATAATGGCTGCTTATGGTGACAATTAAAGAATTGTTACCATATAGCTATTGGATTGGCCATCCGGTGACTAACAAATCGCTCATATACCAGTTTGTTGGTTTTGTTCCCTTATCACATACAGCTCATAACACCCTCTTATATTTACTACAATTGAATAGCAAGAA
modifications: source: /note="Description of Unknown: Human coxsackievirus A2 sequence"

These molecules were tested on HEK293 cells. Settings: circular RNA encoding Gluc with the listed IRES (UTR truncated to 675 nt) transfected into HEK293 cells; supernatant after 24 hours.
Type: cell-based, human
In the case of B1, the “Expression (luminescence from secreted Gluc protein)” value (“Expression” for short) is reported as 4.41E+06.
For B2, the “Expression” value was 8.42E+04.
B3 was tested, and the “Expression” value was 6.83E+07.
For B4, the “Expression” value was 3.73E+05.
For B5, the “Expression” value was 8.84E+04.
B6 was tested, and the “Expression” value was 3.08E+06.
In the case of B7, the “Expression” value is reported as 1.01E+05.
In the case of B8, the “Expression” value is reported as 1.89E+05.
With B9 the “Expression” value was 7.75E+07.
